Source: patent US8541373B2, “BChE albumin fusions for the treatment of cocaine abuse” (priority 2009, dated 2013)
“And” between values parts separate entries of the source, which are not always exact repeats. Identical values can stand only once.

Test: AlbuBChE serum pharmacokinetics after single IM dose (ELISA)
Description: The study included a total of 11 naïve, adult male cynomolgus monkeys divided into four dose groups: • a control group of two cynomologus monkeys that only received a single IV dose of cocaine; • three dose groups that were treated with a single IM dose of AlbuBChE at 0.2, 1 or 5 mg/kg. Three naïve, adult male cynomolgus monkeys were used in each dose group. Following AlbuBChE treatment, a 1 mg/kg IV dose of cocaine was administered at 2, 48, 96, 120, and 240 hours after AlbuBChE dose administration.
A single intramuscular (IM) administration of AlbuBChE was administered on study day 1 and blood was collected at the time points outlined in Table 2. Approximately 0.5 mL of whole blood was collected from the femoral vein into serum separate tubes (SST).
Blocking is done with 2% Casein in 1×PBS, 200 μL/well, 2 hours at room temperature. After washing, 100 μL of diluted serum samples are added to the plates along with standards. Standards are generated through 3.64 fold, serial dilution of AlbuBChE from 2000 to 3.1 ng/mL. Serum samples and standards are maintained at 10% serum by dilution with buffer containing pooled cynomolgus monkey serum. A wash step precedes detection with 100 μL of anti-HSA mAb-6502-HRP at 0.04 μg/mL for 1 hour. Wells are washed again, prior to developing with 100 μl of TMB substrate. After 15 minutes, the reaction is terminated with 100 μL/well of 1N H2SO4 and read on SpectraMax plate reader at 450/570 nm. Values for unknown serum samples are calculated by interpolation of standard curve generated by 4-parameter fit of AlbuBChE standards. The limit of quantitation in cynomolgus serum was 21.1 ng/mL.
AlbuBChE pharmacokinetic parameter values were determined using serum concentration-time profiles for individual animals. The computer software WinNonlin Professional (Version 4.0.1 Pharsight Corporation, USA) was used. Specifically the model for non-compartmental analysis with extravascular input was applied. If there were fewer than 3 data points in the terminal phase of the serum concentration curve, a terminal phase half-life and PK parameters derived from the half-life were not calculated for that profile. Parameters analyzed include tmax, Cmax, t1/2, AUC(0-t) and AUC(0-∞) were calculated.

Substance: AlbuBChE
- AUC % Extrap, individual animals (0.2 mg/kg IM): 19.3% and 18.8% and 14.1%
- AUC(0-t), individual animals (0.2 mg/kg IM): 2746 ng·h/mL and 7878 ng·h/mL and 8479 ng·h/mL
- AUC(0-∞), individual animals (0.2 mg/kg IM): 3404 ng·h/mL and 9704 ng·h/mL and 9867 ng·h/mL
- Cmax, individual animals (0.2 mg/kg IM): 176 ng/mL and 279 ng/mL and 281 ng/mL
- Dose Normalized AUC(0-∞) (0.2 mg/kg IM): 38292
- Dose Normalized Cmax (0.2 mg/kg IM): 1226
- Mean AUC % Extrap (0.2 mg/kg IM): 17.4%
- Mean AUC(0-t) (0.2 mg/kg IM): 6368 ng·h/mL
- Mean AUC(0-∞) (0.2 mg/kg IM): 7658 ng·h/mL
- Mean Cmax (0.2 mg/kg IM): 245 ng/mL
- Mean t½ (0.2 mg/kg IM): 27.2 h
- Tmax, individual animals (0.2 mg/kg IM): 3 h
- t½, individual animals (0.2 mg/kg IM): 15.3 h and 42.1 h and 24.4 h
- AlbuBChE serum concentration, individual animals (0.2 mg/kg IM, 1 hr post dose): 37.1 ng/mL and 235.4 ng/mL and 111.0 ng/mL
- Mean AlbuBChE serum concentration (0.2 mg/kg IM, 1 hr post dose): 128 ng/mL
- AlbuBChE serum concentration, individual animals (0.2 mg/kg IM, 3 hr post dose): 176.1 ng/mL and 278.5 ng/mL and 280.7 ng/mL
- Mean AlbuBChE serum concentration (0.2 mg/kg IM, 3 hr post dose): 245 ng/mL
- AlbuBChE serum concentration, individual animals (0.2 mg/kg IM, 6 hr post dose): 144.0 ng/mL and 212.1 ng/mL and 272.4 ng/mL
- Mean AlbuBChE serum concentration (0.2 mg/kg IM, 6 hr post dose): 210 ng/mL
- AlbuBChE serum concentration, individual animals (0.2 mg/kg IM, 12 hr post dose): 88.4 ng/mL and 143.1 ng/mL and 197.9 ng/mL
- Mean AlbuBChE serum concentration (0.2 mg/kg IM, 12 hr post dose): 143 ng/mL
- AlbuBChE serum concentration, individual animals (0.2 mg/kg IM, 24 hr post dose): 52.3 ng/mL and 95.2 ng/mL and 135.7 ng/mL
- Mean AlbuBChE serum concentration (0.2 mg/kg IM, 24 hr post dose): 94.4 ng/mL
- AlbuBChE serum concentration, individual animals (0.2 mg/kg IM, 36 hr post dose): 29.8 ng/mL and 68.3 ng/mL and 87.4 ng/mL
- Mean AlbuBChE serum concentration (0.2 mg/kg IM, 36 hr post dose): 61.8 ng/mL
- AlbuBChE serum concentration, individual animals (0.2 mg/kg IM, 48 hr post dose): <LLOQ and 66.4 ng/mL and 80.7 ng/mL
- Mean AlbuBChE serum concentration (0.2 mg/kg IM, 48 hr post dose): 73.6 ng/mL
- AlbuBChE serum concentration, individual animals (0.2 mg/kg IM, 72 hr post dose): <LLOQ and 44.5 ng/mL and 39.5 ng/mL
- Mean AlbuBChE serum concentration (0.2 mg/kg IM, 72 hr post dose): 42.0 ng/mL
- AlbuBChE serum concentration, individual animals (0.2 mg/kg IM, 96 hr post dose): <LLOQ (2×) and 30.1 ng/mL
- Mean AlbuBChE serum concentration (0.2 mg/kg IM, 96 hr post dose): <LLOQ
- AlbuBChE serum concentration, individual animals (0.2 mg/kg IM, 128 hr post dose): <LLOQ
- Mean AlbuBChE serum concentration (0.2 mg/kg IM, 128 hr post dose): <LLOQ
- AlbuBChE serum concentration, individual animals (0.2 mg/kg IM, 144 hr post dose): <LLOQ
- Mean AlbuBChE serum concentration (0.2 mg/kg IM, 144 hr post dose): <LLOQ
- AlbuBChE serum concentration, individual animals (0.2 mg/kg IM, 168 hr post dose): <LLOQ
- Mean AlbuBChE serum concentration (0.2 mg/kg IM, 168 hr post dose): <LLOQ
- AlbuBChE serum concentration, individual animals (0.2 mg/kg IM, 216 hr post dose): <LLOQ
- Mean AlbuBChE serum concentration (0.2 mg/kg IM, 216 hr post dose): <LLOQ
- AlbuBChE serum concentration, individual animals (0.2 mg/kg IM, 264 hr post dose): <LLOQ
- Mean AlbuBChE serum concentration (0.2 mg/kg IM, 264 hr post dose): <LLOQ
- tmax (0.2 mg/kg IM, group value): 3 h
- AUC % Extrap, individual animals (1 mg/kg IM): 2.54% and 3.67% and 2.90%
- AUC(0-t), individual animals (1 mg/kg IM): 43128 ng·h/mL and 51298 ng·h/mL and 46185 ng·h/mL
- AUC(0-∞), individual animals (1 mg/kg IM): 44251 ng·h/mL and 53255 ng·h/mL and 47564 ng·h/mL
- Cmax, individual animals (1 mg/kg IM): 1666 ng/mL and 1374 ng/mL and 1956 ng/mL
- Tmax, individual animals (1 mg/kg IM): 3 h
- t½, individual animals (1 mg/kg IM): 28.4 h and 34.3 h and 30.3 h
- Dose Normalized AUC(0-∞) (1.0 mg/kg IM): 48357
- Dose Normalized Cmax (1.0 mg/kg IM): 1665
- Mean AUC % Extrap (1.0 mg/kg IM): 3.04%
- Mean AUC(0-t) (1.0 mg/kg IM): 46871 ng·h/mL
- Mean AUC(0-∞) (1.0 mg/kg IM): 48357 ng·h/mL
- Mean Cmax (1.0 mg/kg IM): 1665 ng/mL
- Mean t½ (1.0 mg/kg IM): 31 h
- AlbuBChE serum concentration, individual animals (1.0 mg/kg IM, 1 hr post dose): 1058.9 ng/mL and 462.4 ng/mL and 1598.6 ng/mL
- Mean AlbuBChE serum concentration (1.0 mg/kg IM, 1 hr post dose): 1040 ng/mL
- AlbuBChE serum concentration, individual animals (1.0 mg/kg IM, 3 hr post dose): 1665.5 ng/mL and 1374.0 ng/mL and 1956.0 ng/mL
- Mean AlbuBChE serum concentration (1.0 mg/kg IM, 3 hr post dose): 1665 ng/mL
- AlbuBChE serum concentration, individual animals (1.0 mg/kg IM, 6 hr post dose): 1269.3 ng/mL and 1266.3 ng/mL and 1596.1 ng/mL
- Mean AlbuBChE serum concentration (1.0 mg/kg IM, 6 hr post dose): 1377 ng/mL
- AlbuBChE serum concentration, individual animals (1.0 mg/kg IM, 12 hr post dose): 884.3 ng/mL and 968.1 ng/mL and 1049.5 ng/mL
- Mean AlbuBChE serum concentration (1.0 mg/kg IM, 12 hr post dose): 967 ng/mL
